# Measurements: the domain aggregation screens of Martell et al. (2025)
# Test: soluble fraction after stress (log2 fold change); higher = more stays soluble; pooled small domains, quantitative proteomics
# Details: stress: pH 4
# Procedure, shortened: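 Pooled custom libraries of small protein domains were subjected to pH 4 and measured by high-throughput quantitative proteomics. The log2 fold change in soluble amount per domain is reported, higher values meaning more remained soluble. This is used as a measure of aggregation propensity.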
row,Sequence,soluble fraction (log2)
1,HMTVPMKILILEDEQRNAMRLIRLLNDIDTTFIIEGPLTNIKEAVDFFQSGKTTDLILADIRL,-0.489
2,HMRRTEKEIEQDVMRAIATIISEKGISSVTIKEVSNLSKTDVIVLERRFKNDEGLIKAYTSQ,0.0814
3,HMSFPDTYFKGNKVIGLSYNDLKKFLNNAGYSKFDEEVEEWGEKRVSIEDDMVDFYLEDDKVVSI,-0.356
4,HMNLTSNDAYSRILNAIITSELRPGDTVTEIQLAQKFGFGRTPVREAIMRLENEGFIVSAERKKRVYIL,-0.815
5,HMLMKILTDALEKMSPEELKELAEATGVKNTSSITPETMVGVFQAVFRVGGFKSYQLTLIIVNAVLKA,-0.398
6,HMTLNTQLFTWKKGVRVGEDDQGNIYYRTKDDKRRWVIFTGETEATKVSPDWHGWLHRTWATPPNK,-0.14
7,HMGPYGAGSAAPAEDGSGPEGWTVKGNAKSMLYHTEGSPYYGRTNADVWFRDEESAEAAGFRRWDRK,0.033
8,HMPLEKGVVILDVTPSSAKVAVDGTSVETTYPLRLSAGLHQLSAEADGYDSITEYFKVETEKTTVTLDLSK,0.234
9,HMYFDDEELDTYKGRASNAYSPDETAQFEEVMTTMRPDEVAAWLRSLQLRGINLPDELKDEAIMLVE,-1.22
10,HMDINIETLNYYVGKAKIPLSELRISVKNIDLFLSGEKQPTFNQLSSIAKKLNIPTGLLLLDESIEV,-1.34
11,HMGNSRNDQDLQTQIIKILAEGPASSRTLIETLTIEDEAALLKTLKRLLMNKKISLTPSNLYKL,-0.66
12,HMKRNLESVLDHIEGIGPKRRKALYKHFGNLDAMRVAELEELESVEGMNKKAALAVYEFFRRNS,0.411
13,HMGRTGTVVVSPSLNVRTGPWGEIIGSLYNGNKVEIIGSSGDWYQISFGGKTAYVHSDYVVDGG,-0.779
14,HMSDRLRLGRRIRAARLEQNLSQAALAERLGISASYLNLLEHDRRSLTTVLLLKLAQVLGLELRDLAAG,0.0304
15,HMTPQDYEYLRKLLKDQSGLDLSVDKQYLLESRLVPLSRKAGLAGIPELVQKMKAGSASLTAQVVEAMTT,0.07
16,HMAPSVNEVAWAQKIIDAHAEAAAAGKGLVVVDGKLIENLHVEEAKQLLSLSDAIAKNDASNG,-0.31
17,HMSKDKEKRTREHVLGILKKYDKVMTDKAFTVFKKMIKDESILEMELIKLINFIGERKEIRSKDVLAVVTE,-0.329
18,HMQRNLILKLDTDQPEIYKKLESIFVEINGLLVPFFIEKIIWSKQDSLNILFKNSSEALVEQLIGKNVFLP,0.0162
19,HMEDHMVVFGKGGRITRLPDKATVLEYLDAANFFASRSSVVKVNGKLASLDQTLRDGDSIEIVD,-0.473
20,HMTYSEEEIERDLYVRGTLYQIGDLVENKIDGTSGEIVRRGPNYVQYSDGENFYKAFLHSIQEV,-1.45
21,HMLTRYNVNYYYNGEILQRRKVAEGSAAERITYLSGSLEVTDWYTEADLLRKYDFTEPVTGDLNLYAFARI,-0.556
22,HMVQMNMLELQEEMQRDRSWIIKHLFQDEYFRRKIAKFSQFPINDSGKYLFHRKSMLKFLNDYAEEIVER,-1.46
23,HMIPNPMTDRELEVLGLLASGKTYKQVARALDLSQSTVRNHLHNVYHKLNVVDRAQAVIVSRENGW,-0.29
24,HMGTSSAEIAAELRAQIFAGELRPGEMLPSAREITGTWNVAIATASRVHALLRSEGLATPVPGVGTVVAT,-0.17
25,HMTNLKALRESKGVSQQTVADYLGITRQAYGNYETGKRQADYAALLRLAAFFGVSVDALLQP,0.102
26,HMVNPDAPAPLYIVNGKETDKNIALAIKPEDVQDVRIIKNTVALQVYGEKGKNGVVIINTKPGV,0.0604
27,HMPPNHADLKSSGLKATLPRLKILEIFQNSQVRHLSAEDVYKLLLAENLDVGLATVYRVLTQFEQAGL,-0.511
28,HMLGRPDMSPIPEGSRNNDLHAWGFGRLANHPDNKRQIEADFFERGRISGLGDAEIRASWNSILRQLGHQ,0.276

row,Sequence,soluble fraction (log2)
1,HMLTQEEITRRRGEILTAAMGVILRKGFLETSMREIAEAAGVGKSTLYDYFPSKDEIMIAYVVD,-0.869
2,HMETADREILLREIREIINERVDYNKDITDDEMKELVMNTVFERSRQQYMSIQDKQEIIQAIFNSMR,-1.02
3,HMLELTGEEEFVIRTLTRQGDLHINALVVETDIPINRMISLLFELEMKGVVKALVGGVYHLLG,-1.58
4,HMKPNEYVSGETFPYLGKNYRLKVLHGSENSVRLKGGYFITTISNRDSQLSTVKSLLEDWYQTHADK,-0.163
5,HMKSAIGEEKAENFAFADLGMDPLSAEGVRTEFGFEQGQFVYKVYFTADGTEYEYWIKASDGSVVKKGMDL,-1.33
6,HMGMKTSQKLARQREIVRLIRAQTIRTQAELADALRERAFPVSQPTLSKDIAELGLIKVPLPDSGYRYQLP,-0.105
7,HMTQLPEVPVERGMVLEEVQSGWVGAVTRVEKSGGMHVVALEDRRGKSRSFRLGFGFLLEGQPIRLMPPAP,-0.882
8,HMAYVDWYENKQPTHEEAFKKLLGRIHPGAIVLLHSTSKTNGEILDELLTKWEEMGYRFGTLDELTGN,-1.14
9,HMALGRTGEVYLPIPAGRAGHGKISITLQGALREVDAVTAGEALPRGTSVRVVDVAGNGVLLVEK,0.32
10,HMLPELIVTTKKGVTVTVTNGVITYSATSNGKATFTVPNYGKWTVSATINGTVISKVVDVTEAKQIPVLLG,-0.318
11,HMREEMYGLIGFITTSEVTDTFGQMEIKLENEPEMRINVRTNPGESLARGDAAKIISFNNSNGTFLVELTK,-0.564
12,HMPQIDLYPFEVRIEQDNNAAEYAVRFLDVPNIIGSGASIDEAIVEARGNLKEYLDYLIDTNRDIPLPS,-1.43
13,HMEKTEQMQVILDYIARYGEINNEKVQEILGVKRTRAYTILKQMVENGFVTTNGRGEEKKYYSIR,-0.33
14,HMDQESFGYFHVKYADVKQVADLVQKLNIPAVTWADERTRRLVALGSPATLQRISQVLNMVDL,-0.476
15,HMITDNEFLRIVSFLKQRYGIDMSQKKVIMNGRLENYLKSGGWSSFDEYMNDVEKDTSGDLEKTLVNFLTT,-0.853
16,HMTPNATWQDDAQNLLRDLIQHQPVLVQISAAKRLRDQAEQISRITGGETVTREHVEAAGHALGMGVT,-0.0443
17,HMLGDAVLRQVLETIPEDPAVDYLELRRNTGMTEADLDRVLADLENLGVINKKRTVEQVLYWRT,-1.44
18,HMGLDNEGFERLRQKITRLLSEEALPVKELVDSFASKMRQEVLETLAFLQQEGVIEEKNGKLFLK,-0.283
19,HMKPLAQQVNDYLAATRTSIATLANEIPGYSRPTISRYLAGKYDGDITTIEKLLAEWLAQRTG,-0.581
20,HMDAVDKDGNHMTFKKWSEQLQEAFHALELYDTTRAKQILSELVKFQVDSDITKSLKAIITNIDDMMA,-1.5
21,HMDKSPVLQLNRDVPAGQQISADDFRTVEIGADGAFRSVPSSDLNAMVGSYAKVRLIAGTLLAREALQSG,-0.0884
22,HMINPASEKQLSFANSLIAKKEGGTETLNHYLHNRKVSSLEELDRKDVSEIINALKFAKEVT,0.0908
23,HMGDVPESLVEKAGHSINAKIISAWGMTETGASTMTRPQDDPERAIYSDGVVLPLMDVRVVNDAGLA,-0.271
24,HMTIRIPEEEYLTRAKRAAQMTAERGLDALFLFGSEGDFQNVRYFTSVTPIWERLGVVITASGKAAMLTGP,-0.0548
25,HMRKTYHVDAYQDDKWWVLQVQEMPNAISQVKSLDQADEWIREAINIVSNEPEDSFDVVIIPV,-1.54
26,HMGDRRSVFEQSVLDAIKSLVKQGELATTKAISDHIGTNYQGNVSRAITALLADNKIKKLPKEGVLQPYEA,-0.00881
27,HMLLQTRQRHEALAALGYFKGDVAAAWGPASEEALRAAQAAFGITVDGKWGPQTEDAIQGALQV,-0.701
